Assay results taken from the RNAGym collection of RNA variant scans (doi:10.7554/elife.80360).

B1: Hairpin Ribozyme (parent)
chain: GUCCUCUUUCACGUGCGCGUGAAAGAGAGAAGUGAACCAGAGAAACACACGUUGUGGUAUAUUACCUGGUA

Variants of: B1
Assay: self-cleavage, relative activity (ratio to wild type); higher = more cleavage; co-transcriptional

Row | Variant | self-cleavage
1 | A23G U53G | 0.706
2 | A23C A45C | 0.0875
3 | A22U A28C | 0.561
4 | A22U A28U | 0.67
5 | A22G U53A | 0.926
6 | A22G C65G | 0.249
7 | A22U G42C | 0.325
8 | A22U U63A | 0.155
9 | A22U U67G | 0.295
10 | A22G A41C | 1.01
11 | A22G A41U | 0.921
12 | A23C A36G | 1.08
13 | A23C U58G | 0.674
14 | A22G G56U | 0.0693
15 | A22G G56A | 0.185
16 | A22U G32A | 0.122
17 | A23C U62A | 0.229
18 | A22U U53G | 0.817
19 | A22G G57U | 0.305
20 | A22G G57A | 0.17
21 | A23C A41U | 0.911
22 | A23C A41C | 0.948
23 | A22G U52A | 0.853
24 | A23C U33A | 0.109

Row | Variant | self-cleavage
25 | A22G A59U | 0.0393
26 | A23G C65G | 0.392
27 | A23C G34C | 1.26
28 | A23C G34U | 1.14
29 | A23C G34A | 1.1
30 | A23C U55A | 0.17
31 | A23C U55G | 0.359
32 | A23G A31U | 0.0848
33 | A23G U58C | 0.847
34 | A22U C37G | 0.339
35 | A22G U70A | 0.81
36 | A22G U70G | 0.658
37 | A23C A59U | 0.174
38 | A22G A61C | 0.337
39 | A22G A61U | 0.159
40 | A22U U58G | 0.769
41 | A22U U58A | 0.589
42 | A23G G34U | 1.29
43 | A22G A35U | 0.715
44 | A22G A35G | 0.905
45 | A23G A44U | 0.0965
46 | A23G A49C | 0.159
47 | A23G A49G | 0.426
48 | A22G C46U | 0.0765

Row | Variant | self-cleavage
49 | A22G C46G | 0.208
50 | A22U C38G | 0.184
51 | A23G U60A | 0.694
52 | A23C C46A | 0.131
53 | A22G C38A | 0.147
54 | A22G U55C | 0.294
55 | A22G A44C | 0.136
56 | A22G C50G | 0.42
57 | A22G C50U | 0.362
58 | A23G C37U | 0.466
59 | A23C A49C | 0.136
60 | A23G A24U | 0.651
61 | A23G A24C | 0.648
62 | A23G A43G | 0.0591
63 | A23G A43U | 0.184
64 | A23C C65G | 0.186
65 | A23G G54A | 0.489
66 | A23G U63C | 0.148
67 | A23G G69A | 0.369
68 | A23G G40C | 0.16
69 | A22U G54U | 0.518
70 | A22U G54C | 0.333
71 | A22U G54A | 0.335
72 | A22G G54U | 0.423

Row | Variant | self-cleavage
73 | A22G A64G | 0.565
74 | A22G C48U | 0.149
75 | A22U A30C | 0.223
76 | A23C G56U | 0.1
77 | A22G G27A | 0.522
78 | A22G A47G | 0.135
79 | A23C U63A | 0.238
80 | A23C U63G | 0.273
81 | A22U U70C | 0.876
82 | A22U C50G | 0.223
83 | A23G G27U | 0.254
84 | A23G U52C | 0.713
85 | A23G U52A | 0.899
86 | A22U C66U | 0.482
87 | A22U A64U | 0.14
88 | A22U A64G | 0.474
89 | A23C G57C | 0.192
90 | A23C G57U | 0.29
91 | A22U G69A | 0.42
92 | A23G G57U | 0.142
93 | A22U A59C | 0.17
94 | A22G A49U | 0.126
95 | A22G G25A | 0.623
96 | A22G G25U | 0.595

Row | Variant | self-cleavage
97 | A23G A28U | 0.417
98 | A22G A36G | 0.757
99 | A22U C46U | 0.117
100 | A22U A31C | 0.0317
101 | A22G G29U | 0.0873
102 | A22G G29A | 0.121
103 | A23C G25C | 0.147
104 | A23C G25U | 0.172
105 | A23C C37G | 0.159
106 | A23G U70A | 0.741
107 | A23C U67G | 0.27
108 | A23C A30C | 0.246
109 | A23G G25C | 0.521
110 | A23G G51U | 1.01
111 | A23G G56A | 0.186
112 | A23C G68A | 0.26
113 | A23U A31C | 0.147
114 | A23U A30U | 0.0692
115 | A23G A36C | 0.69
116 | A22G U33G | 0.111
117 | A23C A31G | 0.696
118 | A22U U33C | 0.235
119 | A22U G57U | 0.366
120 | A23C C48G | 0.0948

Row | Variant | self-cleavage
121 | A23C C48U | 0.202
122 | A23C C48A | 0.0725
123 | A23G A41G | 0.678
124 | A23G C50U | 0.43
125 | A23C A35U | 0.559
126 | A23C A35C | 0.797
127 | A23U A24C | 1.02
128 | A23G C38G | 0.186
129 | A23G A59G | 0.184
130 | A23C A26C | 0.507
131 | A22U G56A | 0.147
132 | A22G G42C | 0.365
133 | A22G G42U | 0.288
134 | A22G A31G | 0.744
135 | A22G A31C | 0.159
136 | A23G A61U | 0.138
137 | A23C A43C | 0.146
138 | A23C A43G | 0.0715
139 | A22G U63G | 0.171
140 | A22G U63A | 0.22
141 | A22U G51U | 0.761
142 | A22U G51C | 0.607
143 | A23C U70C | 1.06
144 | A23C A39U | 0.269

Row | Variant | self-cleavage
145 | A22G A39G | 0.298
146 | A23C U52A | 0.875
147 | A22G C37U | 0.646
148 | A22G C37A | 0.312
149 | A22U A43U | 0.136
150 | A22U A43C | 0.178
151 | A23G A39U | 0.252
152 | A23G A39G | 0.353
153 | A23G A39C | 0.408
154 | A23G A26U | 0.842
155 | A23C A28U | 0.501
156 | A22U U52G | 0.883
157 | A22U U52C | 0.631
158 | A23C G51A | 0.83
159 | A23C G51C | 0.804
160 | A23C C66G | 0.166
161 | A23C U53A | 0.757
162 | A22G U58C | 0.954
163 | A22G U58G | 0.528
164 | A23G A71U | 0.634
165 | A23G A71G | 0.975
166 | A23C G69A | 0.379
167 | A23C G69C | 0.244
